# In IntAct's records for PubMed 17053785:
# B1: Partitioning defective 3 homolog (Homo sapiens), Q8TEW0 (parent)
# chain: MKVTVCFGRTRVVVPCGDGHMKVFSLIQQAVTRYRKAIAKDPNYWIQVHRLEHGDGGILDLDDILCDVADDKDRLVAVFDEQDPHHGGDGTSASSTGTQSPEIFGSELGTNNVSAFQPYQATSEIEVTPSVLRANMPLHVRRSSDPALIGLSTSVSDSNFSSEEPSRKNPTRWSTTAGFLKQNTAGSPKTCDRKKDENYRSLPRDTSNWSNQFQRDNARSSLSASHPMVGKWLEKQEQDEDGTEEDNSRVEPVGHADTGLEHIPNFSLDDMVKLVEVPNDGGPLGIHVVPFSARGGRTLGLLVKRLEKGGKAEHENLFRENDCIVRINDGDLRNRRFEQAQHMFRQAMRTPIIWFHVVPAANKEQYEQLSQSEKNNYYSSRFSPDSQYIDNRSVNSAGLHTVQRAPRLNHPPEQIDSHSRLPHSAHPSGKPPSAPASAPQNVFSTTVSSGYNTKKIGKRLNIQLKKGTEGLGFSITSRDVTIGGSAPIYVKNILPRGAAIQDGRLKAGDRLIEVNGVDLVGKSQEEVVSLLRSTKMEGTVSLLVFRQEDAFHPRELNAEPSQMQIPKETKAEDEDIVLTPDGTREFLTFEVPLNDSGSAGLGVSVKGNRSKENHADLGIFVKSIINGGAASKDGRLRVNDQLIAVNGESLLGKTNQDAMETLRRSMSTEGNKRGMIQLIVARRISKCNELKSPGSPPGPELPIETALDDRERRISHSLYSGIEGLDESPSRNAALSRIMGESGKYQLSPTVNMPQDDTVIIEDDRLPVLPPHLSDQSSSSSHDDVGFVTADAGTWAKAAISDSADCSLSPDVDPVLAFQREGFGRQSMSEKRTKQFSDASQLDFVKTRKSKSMDLGIADETKLNTVDDQKAGSPSRDVGPSLGLKKSSSLESLQTAVAEVTLNGDIPFHRPRPRIIRGRGCNESFRAAIDKSYDKPAVDDDDEGMETLEEDTEESSRSGRESVSTASDQPSHSLERQMNGNQEKGDKTDRKKDKTGKEKKKDRDKEKDKMKAKKGMLKGLGDMFRFGKHRKDDKIEKTGKIKIQESFTSEEERIRMKQEQERIQAKTREFRERQARERDYAEIQDFHRTFGCDDELMYGGVSSYEGSMALNARPQSPREGHMMDALYAQVKKPRNSKPSPVDSNRSTPSNHDRIQRLRQEFQQAKQDEDVEDRRRTYSFEQPWPNARPATQSGRHSVSVEVQMQRQRQEERESSQQAQRQYSSLPRQSRKNASSVSQDSWEQNYSPGEGFQSAKENPRYSSYQGSRNGYLGGHGFNARVMLETQELLRQEQRRKEQQMKKQPPSEGPSNYDSYKKVQDPSYAPPKGPFRQDVPPSPSQVARLNRLQTPEKGRPFYS
# Variants of: B1
# Details: with csk_human CSK
row,effect of a mutation on the interaction,Variant
1,disrupting interaction,Y1127F
